The test system of the series is Arabidopsis. Kind of series: Ribo-seq and RNA-seq global translatome profiling (translational efficiency TE, mORF/uORF ribo-shift) upon elf18 treatment. It is filed as in vivo. The conditions noted are these: translational efficiency fold change, elf18 vs Mock; listed as shows 5′ UTR of the transcript.

B1: AT1G16700.1: 5′ UTR of transcript; Alpha-helical ferredoxin (nucleic acid)
DNA: AAATTAAGAGACATCTGATCGAATTTTGTTCCGACGACCGTGAATCACCAGCAAAGGATTCGTGTCAATGTTCTTGTGAGATCGAACTTTCTCTGGGTTCGTGCAGAAGCTTTGCTTTTTTGAGTATCGCGTTTAAGGCACATCGAAGAAGAGAGACCCTAATTTGATATTTTGAGTTCTATCG
B1: the “score (TE change)” value is “TEdown (389 genes displayed decreased TEfc (|z|≥1.5))”.

B2: AT4G23740.1: 5′ UTR of transcript; Leucine-rich repeat protein kinase family protein (nucleic acid)
DNA: CTTTCACCCACTTTAATATGCCAAAAAATAAGAACAAAATTATATCCGTTGCTTGAAAATCACAAGCTCTTCTTAACTTCACAAGTGCTTCAATGGCGGTTCTTCACATTATCTTCACTGCGTAATTGAAGAAGTTGTTCTCTCTTCCTCTTAATTTCGAGTTGTGTTCTTAAAAAACTCCAGAGCTGATTCGATTCTCGAGAAGAAACTAAGCCGACAATAAAGTTCAGATCTGGAAAAAAGCGAGCTCCAGATTACAAAAAGAAACAGCTCGTTTTTTTCACTTTCAAAAAA
Take B2: the “score (TE change)” value is “TEup (448 had increased TEfc)”.

B3: AT4G18570.1: 5′ UTR of transcript; Tetratricopeptide repeat (TPR)-like superfamily protein (nucleic acid)
DNA: ATTTTTATTACTCTCTCAAGTAGTCTCATCTTCTTCTTAATCCAAAGGCCCAAACTTTGAATCATCACTATCACTCTCTCTCTCTCTCTCTATCTCTCAAGAACTGCACGGACAACGACATGCTTTTAATTTCCATGCAAATCTCTCCTTTCTTCTCAAGTCATTTTTGAAAATCAATCAAAAAACTGAAACTTGGTGGAGCTTTTATCATTCACTCATCA
For B3, the “score (TE change)” value is “TEdown (389 genes displayed decreased TEfc (|z|≥1.5))”.

B4: AT4G17840.1: 5′ UTR of transcript (nucleic acid)
DNA: ATCAAAATCAATGATCAAGGTAACGTAGTCAAGTTCAATTACTCTTTGTCAAATTTAAGTGGTCTCTATTACTAAACTATACACAACCGTTAGATCAAATAATTCTCTACCATCCAACGGTCCAAAGTCTCCACTTCTATTTATTACAATAAAATGAGAAAATAAAAACGCGCGGTCACCGATTCTCTCTCGCTCTCTCTGTTACTAAATGAAGAAGAGAATCTCTCCGGCGAGATCACCGGCGTTATTCCGATAATTTCGCCTGAGAGTTGTCGCATGTTATAA
Take B4: the “score (TE change)” value is recorded as “TEup (448 had increased TEfc)”.

B5: AT3G18140.1: 5′ UTR of transcript; Transducin/WD40 repeat-like superfamily protein (nucleic acid)
DNA: ATGAGAAAAGCTTGGTAAAAACCCTATTTTTCTTCTTCTCTTCAATTTACAGTTCTCTGCACCTTTTTCTTTCCCCTGTTTTTTGATCCTCAATCACCAAACCCTAGCTTGTTCTTCTGTTGATTATTTCGAAAAGGGGGTTTGTTTGTTTTCTGGGAATCAGCAAAAATCACGAAATGGTTGGTTTAATATTTCAATCGGGATAAAATCGATCGAAA
As for B5, the “score (TE change)” value is “TEup (448 had increased TEfc)”.

B6: AT3G15030.1: 5′ UTR of transcript; TCP family transcription factor 4 (nucleic acid)
DNA: AGATTTTTTTTTTAAACAAAGAATGGAAAAAAATGAATAAATTTGGGAAACGAGGAAGCTTTGGTTACCCAAAAAAGAAAGAAAGAAAAAATAAAAAAAAATAAAAAGAAAAGCTTTCTCTGGGTTTTTCTTGATTGGTCAATTACACATCTCCCTTTCTCTCTTCTCTCTCTCACCTTCGCTTGCTTTGCTTGCTTCATCTCTTTGGTCTCCTTCTTGCGTTTTCTATTTACTACACAGACCAAACAATAGAGAGAGACTTTAAGCTATAGAAAAAAAGAGAGAGATTCTCTCAAATATGGGTTAGTCCACAATTTTCACTAAACCTCTTCTTCTTAGGATTGTTTTTAGGGTTAGGGTTTTGAGGTGAGGAGAGCAAGTATGCGGGAGTTTCATCCTTTTTGAGTTACTCTGGATTCCTCACCCTCTAACGACGACCACCGTCGCCGCCGCCGCCGCCGTCTCGACGAATATGCTCTACCA
With B6, the “score (TE change)” value is listed as “TEdown (389 genes displayed decreased TEfc (|z|≥1.5))”.

B7: AT4G11110.1: 5′ UTR of transcript; SPA1-related 2 (nucleic acid)
DNA: CTTACTTAAACACAGTCAAATTCATTTTCTGCCTTAGAAAAGATTTTTATCGAAAATCGACGTTTTTGAAAAAACTCAAATTATCGTCGTTTTGTTCTCAGATTTCTTCTGCTCTCTTCTTCTTCTCCTTCTTCTTCGTTCCACCGCCTCTGTTGCTTTATCTTCTTCTTCCTTCCTTCGATTGTTGATTACGTCGGTGGATCTTTGTTCTCCTCTGTGTTGTTTTCATTGCTAGATTTCGTCAATGATTGGCTTCTCACGATTCGATTTTTCCGGCTCCTGTTCTTAATTTCCTCTGAGAGA
On to B7, for which the “score (TE change)” value is reported as “TEup (448 had increased TEfc)”.

B8: AT3G56010.1: 5′ UTR of transcript (nucleic acid)
DNA: GTGTTTAGCTTCTTCACTACCACACAGAAACAGAGTTTCCGTCTTTCATCTTCCTCCATATGCGTCGCTCTTAAAAACCTAATTCACA
modifications: listed as DNA, chemistry not fully specified
notes: 5′ UTR of transcript
As to B8, the “score (TE change)” value was “TEup (448 had increased TEfc)”.

B9: AT3G55020.1: 5′ UTR of transcript; Ypt/Rab-GAP domain of gyp1p superfamily protein (nucleic acid)
DNA: GTCACACATGTAATAAACCTTGGTCGACAATCTCGCCCTTTCCATGTGATTTCTCCACTTCCTCTCTCTCTCTACTGCAACTTCCTCCTCCTGCTTCAACTTCATTCGGGTAATGATGAACTAGCGTAGAGATTTGGATCTTCTTCTTCGTCCTCTCACCAACTCTTCACCGGTTAGATCTCTTTTTCACGCTAACGA
On to B9, for which the “score (TE change)” value was “TEup (448 had increased TEfc)”.

B10: AT3G63340.1: 5′ UTR of transcript; Protein phosphatase 2C family protein (nucleic acid)
DNA: TCTTCTTCTTCGTTTTCAGGCGGGTGGAGGAGCTCAGAGCCTTCCAGAGGTAACCAACCTTTTATTACCGACAAGATTCTGCCACACAATTATTACATATTTTTGTTCCCATGAAGCAATTGTTCCTTTCAAGCATGTTTACGAGCAAAAGAGTGAAAGGGTAGCTTGATTTTTGTCTACTCTAGCTTCATTTTCTGGCGATCTTTACTTGAGATTTAAACATTTTGCTCTCGGATTGATAATAAAGAAGAATTTGGAATATCAGTAGGTTTGGTTAGGACTCTCGGATTCTGTTGTCGGTTAGATATTTGTTTTGTTTAATCCCTAGATTTAGCAGAGAAATCCCTCAAATCTCACACAATCCATGTAAGGAAGAAG
In the case of B10, the “score (TE change)” value is recorded as “TEdown (389 genes displayed decreased TEfc (|z|≥1.5))”.

(Values after patent publication US20190352664A1, “COMPOSITIONS AND METHODS FOR CONTROLLING GENE EXPRESSION” (priority 2017, published 2019).)
